{"source": "paper PMC8855868", "binders": {"B1": {"name": "20 bp mC (dsDNA)", "DNA 1": "ACTACCATCCGGACCAGAAG", "DNA 2": "CTTCTGGTCCGGATGGTAGT", "modifications": "5mC at position 10 of strand 1 and position 10 of strand 2 (printed as X)"}}, "target": "MeCP2 (human, UniProt P51608 1-486)", "sequence (P51608 whole entry)": "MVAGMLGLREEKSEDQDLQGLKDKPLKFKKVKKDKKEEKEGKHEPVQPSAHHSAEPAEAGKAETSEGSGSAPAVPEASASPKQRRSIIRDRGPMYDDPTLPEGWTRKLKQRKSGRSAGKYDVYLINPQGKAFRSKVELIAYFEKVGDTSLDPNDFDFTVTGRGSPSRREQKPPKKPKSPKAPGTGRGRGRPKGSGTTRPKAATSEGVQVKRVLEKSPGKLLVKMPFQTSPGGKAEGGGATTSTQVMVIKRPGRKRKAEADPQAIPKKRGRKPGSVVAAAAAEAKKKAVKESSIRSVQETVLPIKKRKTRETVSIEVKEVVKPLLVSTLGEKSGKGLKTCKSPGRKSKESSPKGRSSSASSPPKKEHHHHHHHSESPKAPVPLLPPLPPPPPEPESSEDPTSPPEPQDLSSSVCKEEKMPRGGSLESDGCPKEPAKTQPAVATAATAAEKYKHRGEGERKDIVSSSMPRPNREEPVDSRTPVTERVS", "assay": "MST"}
{"binder": "B1", "values": [{"measurement": "binding result", "value": "binds"}]}
